How the values were obtained:
Assay in all cases: Kd (EC50 corrected by depletion factor)
CPSF7 = molecular target: T1, CPSF7 (UniProt Q8N684)
T1 sequence: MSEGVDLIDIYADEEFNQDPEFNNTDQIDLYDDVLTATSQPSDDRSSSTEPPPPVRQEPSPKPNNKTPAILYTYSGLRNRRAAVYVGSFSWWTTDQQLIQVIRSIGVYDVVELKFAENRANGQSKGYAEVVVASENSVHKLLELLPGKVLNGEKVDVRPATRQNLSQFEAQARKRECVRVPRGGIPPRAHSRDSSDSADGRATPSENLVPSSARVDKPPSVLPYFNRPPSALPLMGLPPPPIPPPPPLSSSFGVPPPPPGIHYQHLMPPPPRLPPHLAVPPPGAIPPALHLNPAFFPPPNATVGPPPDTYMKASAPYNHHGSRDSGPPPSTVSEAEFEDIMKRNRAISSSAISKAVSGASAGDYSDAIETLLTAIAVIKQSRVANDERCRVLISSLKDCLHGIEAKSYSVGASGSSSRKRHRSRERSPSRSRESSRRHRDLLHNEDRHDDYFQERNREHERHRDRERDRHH
In short: (§1)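 Over three biological replicates and two independent experiments, proteins captured on NHS-Sepharose beads carrying 5′-amino-C6 RNA oligos were quantified by label-free LC-MS/MS and normalised to the control. Capture lasted 30 min at 4°C and followed a 1 h pre-incubation at 4°C of HEK293-FT lysate (2.5 mg protein/well) with the same oligos in free form (0 nM to 30 μM). EC50 was taken from a four-parameter log-logistic fit, and Kd was EC50 corrected by a protein-dependent depletion factor.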

CXorf57 = CXorf57 (UniProt Q6NSI4)
Sequence of CXorf57 (Q6NSI4 whole entry): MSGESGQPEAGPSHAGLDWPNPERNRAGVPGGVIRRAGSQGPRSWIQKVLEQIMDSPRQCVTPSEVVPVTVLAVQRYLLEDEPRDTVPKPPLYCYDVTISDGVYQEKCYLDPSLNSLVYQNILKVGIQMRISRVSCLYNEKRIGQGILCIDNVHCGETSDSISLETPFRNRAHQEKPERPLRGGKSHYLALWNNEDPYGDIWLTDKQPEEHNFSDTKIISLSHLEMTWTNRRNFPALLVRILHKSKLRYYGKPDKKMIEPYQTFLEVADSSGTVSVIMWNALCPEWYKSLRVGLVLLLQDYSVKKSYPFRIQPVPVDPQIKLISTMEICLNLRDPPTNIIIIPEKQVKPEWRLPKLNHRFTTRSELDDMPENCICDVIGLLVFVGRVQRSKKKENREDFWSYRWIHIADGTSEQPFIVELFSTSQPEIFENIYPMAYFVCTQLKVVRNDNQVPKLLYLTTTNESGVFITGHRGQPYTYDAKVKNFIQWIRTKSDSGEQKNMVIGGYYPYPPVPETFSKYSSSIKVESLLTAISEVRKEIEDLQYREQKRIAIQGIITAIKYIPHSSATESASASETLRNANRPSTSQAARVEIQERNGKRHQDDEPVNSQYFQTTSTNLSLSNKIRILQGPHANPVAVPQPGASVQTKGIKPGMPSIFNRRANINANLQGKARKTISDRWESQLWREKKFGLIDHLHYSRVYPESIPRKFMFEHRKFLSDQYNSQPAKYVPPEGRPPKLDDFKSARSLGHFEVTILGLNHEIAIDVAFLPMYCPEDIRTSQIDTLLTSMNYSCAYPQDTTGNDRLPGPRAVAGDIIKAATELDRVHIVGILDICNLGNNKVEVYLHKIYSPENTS
In short: as §1

U2AF2 = U2AF2 (UniProt P26368)
Sequence of U2AF2 (P26368 whole entry): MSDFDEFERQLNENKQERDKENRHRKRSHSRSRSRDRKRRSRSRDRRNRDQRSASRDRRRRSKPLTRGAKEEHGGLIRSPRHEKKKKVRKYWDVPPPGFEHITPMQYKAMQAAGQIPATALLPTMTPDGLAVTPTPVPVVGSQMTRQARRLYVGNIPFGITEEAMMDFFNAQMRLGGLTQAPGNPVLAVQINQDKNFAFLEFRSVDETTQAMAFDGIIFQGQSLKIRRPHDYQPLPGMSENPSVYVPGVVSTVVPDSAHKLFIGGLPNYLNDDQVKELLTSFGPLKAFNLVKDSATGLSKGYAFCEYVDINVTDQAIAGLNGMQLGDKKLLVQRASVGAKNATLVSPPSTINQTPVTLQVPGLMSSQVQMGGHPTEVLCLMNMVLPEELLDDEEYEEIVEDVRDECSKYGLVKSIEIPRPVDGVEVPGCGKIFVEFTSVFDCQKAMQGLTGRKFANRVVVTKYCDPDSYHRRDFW
In short: as §1

SF3B2 = molecular target: T2, SF3B2 (UniProt Q13435)
T2 sequence: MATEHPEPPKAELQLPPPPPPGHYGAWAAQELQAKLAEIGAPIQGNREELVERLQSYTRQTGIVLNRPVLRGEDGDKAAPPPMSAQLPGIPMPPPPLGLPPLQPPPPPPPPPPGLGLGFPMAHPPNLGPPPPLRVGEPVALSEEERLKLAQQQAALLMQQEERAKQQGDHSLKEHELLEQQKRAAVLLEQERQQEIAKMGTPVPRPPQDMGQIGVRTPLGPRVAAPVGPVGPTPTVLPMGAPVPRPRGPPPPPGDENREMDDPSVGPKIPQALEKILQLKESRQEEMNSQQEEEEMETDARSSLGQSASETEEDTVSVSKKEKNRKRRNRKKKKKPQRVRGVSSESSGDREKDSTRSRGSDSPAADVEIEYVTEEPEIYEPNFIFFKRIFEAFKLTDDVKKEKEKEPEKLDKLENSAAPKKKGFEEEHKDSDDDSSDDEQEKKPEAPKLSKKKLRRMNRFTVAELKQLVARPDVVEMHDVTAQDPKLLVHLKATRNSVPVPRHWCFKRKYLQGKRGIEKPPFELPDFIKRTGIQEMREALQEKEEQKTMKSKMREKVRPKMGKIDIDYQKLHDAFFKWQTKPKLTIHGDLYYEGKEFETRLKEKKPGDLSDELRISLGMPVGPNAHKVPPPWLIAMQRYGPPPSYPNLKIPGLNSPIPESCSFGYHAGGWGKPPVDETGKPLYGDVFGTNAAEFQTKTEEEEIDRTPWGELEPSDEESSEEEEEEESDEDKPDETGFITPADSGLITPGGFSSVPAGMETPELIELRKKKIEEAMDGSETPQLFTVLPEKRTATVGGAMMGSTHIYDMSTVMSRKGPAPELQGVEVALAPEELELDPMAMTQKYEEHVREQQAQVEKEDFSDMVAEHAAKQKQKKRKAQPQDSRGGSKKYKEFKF
In short: as §1

PIP5K1A = PIP5K1A (UniProt Q99755)
Sequence of PIP5K1A (Q99755 whole entry): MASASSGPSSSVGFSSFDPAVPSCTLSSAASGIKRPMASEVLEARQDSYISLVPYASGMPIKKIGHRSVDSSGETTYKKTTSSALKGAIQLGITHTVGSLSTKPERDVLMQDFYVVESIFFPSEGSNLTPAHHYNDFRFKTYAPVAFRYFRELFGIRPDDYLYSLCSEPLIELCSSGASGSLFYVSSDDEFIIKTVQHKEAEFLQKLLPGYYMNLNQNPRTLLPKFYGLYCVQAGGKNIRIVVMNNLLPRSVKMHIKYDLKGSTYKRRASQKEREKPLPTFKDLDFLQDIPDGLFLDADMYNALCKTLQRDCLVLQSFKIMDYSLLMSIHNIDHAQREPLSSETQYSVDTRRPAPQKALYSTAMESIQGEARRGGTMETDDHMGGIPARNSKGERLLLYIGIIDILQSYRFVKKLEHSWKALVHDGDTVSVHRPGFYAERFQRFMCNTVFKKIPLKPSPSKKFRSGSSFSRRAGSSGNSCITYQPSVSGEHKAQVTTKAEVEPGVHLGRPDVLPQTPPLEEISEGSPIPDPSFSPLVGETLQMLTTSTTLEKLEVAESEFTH
In short: as §1

MRPL38 = MRPL38 (UniProt Q96DV4)
In short: as §1

RPS14 = RPS14 (UniProt P62263)
In short: as §1

MRPL50 = MRPL50 (UniProt Q8N5N7)
In short: as §1

IGF2BP3 = IGF2BP3 (UniProt O00425)
Sequence of IGF2BP3 (O00425 whole entry): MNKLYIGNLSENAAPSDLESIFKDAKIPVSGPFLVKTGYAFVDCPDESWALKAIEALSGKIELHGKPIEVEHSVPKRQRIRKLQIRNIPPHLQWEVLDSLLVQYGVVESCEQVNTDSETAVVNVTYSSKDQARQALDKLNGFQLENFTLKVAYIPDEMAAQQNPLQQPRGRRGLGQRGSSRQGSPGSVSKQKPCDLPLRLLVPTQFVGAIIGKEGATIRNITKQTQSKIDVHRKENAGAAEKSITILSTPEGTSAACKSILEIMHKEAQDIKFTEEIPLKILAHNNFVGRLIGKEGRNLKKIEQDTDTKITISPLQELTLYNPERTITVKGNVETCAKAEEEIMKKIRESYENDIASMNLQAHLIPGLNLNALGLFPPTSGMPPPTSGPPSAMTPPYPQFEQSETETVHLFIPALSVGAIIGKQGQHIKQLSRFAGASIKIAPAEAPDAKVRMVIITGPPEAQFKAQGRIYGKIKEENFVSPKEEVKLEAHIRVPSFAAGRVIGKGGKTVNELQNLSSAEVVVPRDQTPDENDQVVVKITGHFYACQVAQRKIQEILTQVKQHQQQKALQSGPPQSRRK
In short: as §1

SRSF4 = molecular target: T3, SRSF4 (UniProt Q08170)
T3 sequence: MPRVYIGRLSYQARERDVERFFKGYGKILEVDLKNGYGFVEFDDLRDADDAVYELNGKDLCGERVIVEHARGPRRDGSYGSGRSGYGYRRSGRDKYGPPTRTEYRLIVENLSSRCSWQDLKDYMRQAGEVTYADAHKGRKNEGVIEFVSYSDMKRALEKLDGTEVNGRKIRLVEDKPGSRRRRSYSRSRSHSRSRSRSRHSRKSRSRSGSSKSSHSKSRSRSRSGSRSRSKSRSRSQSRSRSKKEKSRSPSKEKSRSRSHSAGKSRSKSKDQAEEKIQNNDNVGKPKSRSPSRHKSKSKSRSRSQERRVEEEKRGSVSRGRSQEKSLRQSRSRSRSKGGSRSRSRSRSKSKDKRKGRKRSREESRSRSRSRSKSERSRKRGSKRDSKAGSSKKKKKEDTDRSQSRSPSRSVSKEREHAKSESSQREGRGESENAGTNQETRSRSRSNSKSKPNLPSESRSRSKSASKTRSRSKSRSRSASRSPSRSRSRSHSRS
In short: as §1

MRPS26 = MRPS26 (UniProt Q9BYN8)
In short: as §1

AAUAAA was tested, and the Kd (CPSF7) was 2100 nM, the Kd (CXorf57) was 1040 nM and the Kd (U2AF2) was 106 nM. It also gave a Kd (SF3B2) of 719 nM and a Kd (PIP5K1A) of 467 nM.

Sequence CUGUCCU has a Kd (MRPL38) of 40.7 nM, a Kd (RPS14) of 126 nM and a Kd (MRPL50) of 149 nM. The Kd (IGF2BP3) was 685 nM and the Kd (SRSF4) was 312 nM.

In the case of UAUUUAU, the Kd (MRPS26) is reported as 15.9 nM.

Reference: the supplement of paper PMC6379048
